Laboratory results reported in patent US9399667B2, “Peptides derived from cytotoxicity receptor natural killer protein 44 NKP44” (03;b. G. NEGEV TECHNOLOGIES AND APPLICATIONS LTD., AT …, priority 2012, dated 2016).

Assays:
human cancer cells = assay: Direct binding of biotin-conjugated NKp44-derived peptides to human cancer cells (flow cytometry); details: biotin-conjugated peptide 10 μg/well; number in brackets is an undefined grade
NKp44-Ig = target: T1, NKp44-Ig (Homo sapiens, UniProt O95944); assay: Effect of peptides on NKp44-Ig binding to tumor cells (flow cytometry); details: for Effect on NKp44-Ig binding to tumor cells: 2 μg/well NKp44-Ig, 10 μg/well peptide, 1.5 hr, number in brackets is an undefined grade
T1 construct: fusion proteins containing the extracellular domains NKp30, NKp44 or NKp46 fused to the Fc portion of human IgG1
T1 sequence (O95944 22-192 limits assumed): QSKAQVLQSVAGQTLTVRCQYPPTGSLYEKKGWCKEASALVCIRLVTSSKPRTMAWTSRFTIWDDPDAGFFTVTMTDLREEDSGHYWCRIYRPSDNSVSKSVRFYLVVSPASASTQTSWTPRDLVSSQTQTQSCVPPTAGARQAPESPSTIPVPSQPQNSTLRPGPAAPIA
Description: (§1) Binding of rNK receptors and binding inhibition assays were performed as follows: 1×10^5 target cells were incubated with 2 μg of the NK receptor-Ig and 5 or 10 μg of the peptides in staining solution consisting of 0.5% (w/v) BSA and 0.05% sodium azide in PBS at 4° C. for 1.5 hrs. Then, cells were washed and stained with APC-conjugated anti-human IgG. Dead cells were detected with propidium iodide (PI). Percentage of inhibition was calculated as the percent of the cell population showing a reduced staining by the NK receptor-Ig in the presence of peptides as compared to reference positive staining by the NK receptor-Ig without peptides. […] Flow cytometry was performed using a FACSCanto II or FACScalibur (BD Bioscience) and results were analyzed using Diva 6.1.2 or CellQuest 3.3, respectively.
Target cells were incubated for 1.5 hr with 2 μg/well NKp44-Ig and 10 μg/well of each peptide. NKp44-Ig binding intensity was determined by flow cytometry, using fluorescent 2Ab (goat anti-mouse mAb).
(§2) Target cells were stained with 2 μg/well of NK receptor-Igs in the presence of 10 μg/well of SEQ ID NO: 4, 5, 55 (15mer-shared core sequence between SEQ ID NO:4 and 5), or SEQ ID NO: 1. The NK receptor-Ig staining intensities were determined by flow cytometry, using fluorescent APC-conjugated F(ab′)2 goat anti-human IgG.

[1] = system: human cancer cells, MIN6 murine beta cell line and primary mouse beta cells; assay: Direct binding of biotin-conjugated NKp46-derived peptides to target cells (flow cytometry, fluorescent Streptavidin); details: biotin-conjugated peptide 10 μg/well, number in brackets is an undefined grade
NKp46D2-Ig = target: T2, NKp46D2-Ig (Homo sapiens, UniProt O76036); assay: Effect of peptides on NKp46D2-Ig binding to target cells (flow cytometry); details: for Effect on NKp46D2L binding to cells: 1.5 hr, compared to staining without peptide or with non-affecting peptides, number in brackets is an undefined grade
T2 construct: made in house
T2 sequence (O76036 with tags, fused parts or gaps isoform O76036-6): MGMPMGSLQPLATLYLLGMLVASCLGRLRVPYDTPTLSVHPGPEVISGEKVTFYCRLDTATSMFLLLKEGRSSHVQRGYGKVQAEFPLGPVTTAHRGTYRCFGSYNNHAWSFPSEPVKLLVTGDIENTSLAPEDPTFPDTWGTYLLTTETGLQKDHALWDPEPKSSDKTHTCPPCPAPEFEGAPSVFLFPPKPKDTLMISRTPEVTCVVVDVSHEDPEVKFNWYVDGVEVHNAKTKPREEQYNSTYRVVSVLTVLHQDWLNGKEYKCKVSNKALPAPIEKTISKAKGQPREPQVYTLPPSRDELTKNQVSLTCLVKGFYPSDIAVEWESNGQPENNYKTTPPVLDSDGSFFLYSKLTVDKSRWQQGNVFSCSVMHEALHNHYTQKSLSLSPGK
Description: as §1
(§3) Target cells were incubated for 1.5 hr with 2 μg/well NKp46D2-Ig and 10 μg/well of each peptide. NKp46D2-Ig binding intensity was determined by flow cytometry, using fluorescent 2Ab (goat anti-mouse monoclonal antibody).
as §2

LIR1-Ig = target: T3, LIR1-Ig (Homo sapiens, UniProt Q8NHL6); assay: Effect of peptides on LIR1-Ig binding to target cells (flow cytometry); details: for Binding of LIR1-Ig in the presence of peptide: Example 1, FIGS. 3 and 5, HeLa cells
T3 construct: made in house
T3 sequence (Q8NHL6 24-461 limits assumed): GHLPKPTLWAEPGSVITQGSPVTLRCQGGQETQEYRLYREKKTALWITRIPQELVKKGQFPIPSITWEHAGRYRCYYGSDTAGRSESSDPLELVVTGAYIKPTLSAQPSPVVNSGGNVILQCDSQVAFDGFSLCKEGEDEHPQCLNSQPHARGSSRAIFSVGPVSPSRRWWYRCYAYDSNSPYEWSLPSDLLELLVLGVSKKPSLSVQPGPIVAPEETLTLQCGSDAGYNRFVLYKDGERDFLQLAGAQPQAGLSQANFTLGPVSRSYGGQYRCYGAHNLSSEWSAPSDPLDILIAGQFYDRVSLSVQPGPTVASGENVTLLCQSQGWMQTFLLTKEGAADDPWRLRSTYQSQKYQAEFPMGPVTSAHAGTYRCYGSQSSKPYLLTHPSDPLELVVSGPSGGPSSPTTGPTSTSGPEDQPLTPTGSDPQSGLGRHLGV
Description: as §1, with “target cells were incubated with 2 μg of the NK receptor-Ig and 5 or 10 μg of the peptides in staining solution consisting” left out
as §3, §2

NKp46-Ig = target: T4, NKp46-Ig (Homo sapiens, UniProt O76036); assay: Effect of peptides on NKp46-Ig binding to tumor cells (flow cytometry); details: Example 3, FIG. 9B/9C; 10 μg/well peptide; to a lesser extent than NKp46D2-Ig binding
T4 construct: fusion proteins containing the extracellular domains NKp30, NKp44 or NKp46 fused to the Fc portion of human IgG1; made in house
T4 sequence (O76036 22-258 limits assumed): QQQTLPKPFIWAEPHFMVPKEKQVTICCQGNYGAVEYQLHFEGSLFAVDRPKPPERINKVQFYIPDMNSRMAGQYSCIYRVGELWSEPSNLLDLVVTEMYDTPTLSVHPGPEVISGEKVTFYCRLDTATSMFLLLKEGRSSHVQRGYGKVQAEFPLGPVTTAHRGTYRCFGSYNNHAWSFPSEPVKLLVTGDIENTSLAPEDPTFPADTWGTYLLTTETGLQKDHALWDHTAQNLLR
Description: as §1, §2

NKp30-Ig = target: T5, NKp30-Ig (Homo sapiens, UniProt O14931); assay: Effect of peptide on NKp30-Ig binding to HeLa cells (flow cytometry); details: pep4 0.625 to 10 μg/well, FIG. 9D
T5 construct: fusion proteins containing the extracellular domains NKp30, NKp44 or NKp46 fused to the Fc portion of human IgG1; made in house
T5 sequence (O14931 19-135 limits assumed): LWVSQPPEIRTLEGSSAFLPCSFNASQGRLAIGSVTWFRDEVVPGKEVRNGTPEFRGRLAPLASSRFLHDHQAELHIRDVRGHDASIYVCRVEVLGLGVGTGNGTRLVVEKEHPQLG
Description: as §1, with “target cells were incubated with 2 μg of the NK receptor-Ig and 5 or 10 μg of the peptides in staining solution consisting” left out
as §2

[2] = system: NKp46-expressing NK cells; assay: Flow cytometry cytotoxicity assay: lysis of target tumor cells by human primary NK cells; assay type: cell-based
Description: (§4) NK cells were isolated from the peripheral blood of healthy donors using a human NK cell isolation kit (Miltenyi Biotec). NK purity was greater than 90% (CD3^−CD56^±). Purified NK cells were cultured in CellGro SCGM serum-free medium (CellGenix, 2001) supplemented with 10% heat inactivated human plasma from healthy donors, 1 mM sodium pyruvate, 2 mM L-glutamine, MEM non-essential amino acids, 1% penicillin/streptomycin, 10 mM HEPES (Gibco™) and 300 IU/ml of human IL-2 (Biological Industries Israel Ltd).
(§5) The flow cytometry cytotoxicity assay was previously described (Flodstrom et al. Diabetes 48, 706-713 (1999)). Effector human primary NK cells were labeled with CellTrace CFSE (Invitrogen, C3554). Analysis of 7-AAD for negative-CFSE target tumor cells was performed using a FACSCantoII and data were analyzed by Diva 6.1.2. For blocking experiments, NK cells were pre-incubated with mouse polyclonal anti-NKp46 serum or with naive serum 30 min at 4° C. before being combined with target cells. The NK degranulation assay was performed as previously described (Raulet, D. H. Nat Rev Immunol 3, 781-790 (2003); Biassoni, R. et al. Eur J Immunol 29, 1014-1020 (1999)).
Next, the influence of the peptide of SEQ ID NO: 4 on NK cells function was investigated. Target HeLa cells were plated and pep4 or mock peptide was added just before adding an effector human primary NK cell line. […] To verify that the peptide of SEQ ID NO: 4 inhibits NKp46-mediated lysis, anti-NKp46 serum was used to block the receptor on human primary NK cells.

human primary NK cells = assay: CD107a (LAMP-1) degranulation assay of human primary NK cells; assay type: cell-based; details: co-cultured with HeLa or 721.221 target cells for four hours at different E:T ratios; FIG. 10C, p<0.05
Description: as §4
as §5, with “1014-1020 (1999)). […]” for “1014-1020 (1999)).”

[3] = 2 μg/well NKp46D2-Ig, 10 μg/well peptide
[4] = HeLa cells, pep4 0.625 to 10 μg/well, FIG. 9D

EASAL VCIRL VTSSK PRTVA (EASALVCIRLVTSSKPRTVA) [SEQ ID NO: 32]
Direct binding to tumor cells (human cancer cells): Yes (1)
Effect on NKp44-Ig binding to tumor cells (NKp44-Ig): Enhance (1)

KGWCK EASAL VCIRL VTSSK (KGWCKEASALVCIRLVTSSK) [SEQ ID NO: 31]
Direct binding to tumor cells (human cancer cells): Yes (1)
Effect on NKp44-Ig binding to tumor cells (NKp44-Ig): Enhance (1)

LDTAT SMFLL LKEGR SSHVQ (LDTATSMFLLLKEGRSSHVQ) [SEQ ID NO: 6]
Direct binding to cells [1]: No
Effect on NKp46D2L binding to cells (NKp46D2-Ig; [3]): inhibiting binding
Effect on NKp46D2L binding to cells (NKp46D2-Ig; 2 μg/well NKp46D2-Ig, 10 μg/well peptide, listed as 6): Suppress (1)
Binding of LIR1-Ig in the presence of peptide (LIR1-Ig): not affected

PLGPV TTAHR GTYRC FGSYN (PLGPVTTAHRGTYRCFGSYN) [SEQ ID NO: 12]
Direct binding to cells [1]: direct binding
Direct binding to cells ([1]; listed as 12): Yes (3)
Effect on NKp46D2L binding to cells (NKp46D2-Ig; [3]): enhancing NKp46D2-Ig binding
Effect on NKp46D2L binding to cells (NKp46D2-Ig; 2 μg/well NKp46D2-Ig, 10 μg/well peptide, listed as 12): Enhance (3)
Binding of LIR1-Ig in the presence of peptide (LIR1-Ig): not affected

SGEKV TFYCR LDTAT SMFLL (SGEKVTFYCRLDTATSMFLL) [SEQ ID NO: 4]
Direct binding to cells [1]: No
Effect on NKp46D2L binding to cells (NKp46D2-Ig; [3]): inhibiting binding
Effect on NKp46D2L binding to cells (NKp46D2-Ig; 2 μg/well NKp46D2-Ig, 10 μg/well peptide, listed as 4): Suppress (2)
Binding of NKp46D2-Ig to HeLa cells upon co-incubation with peptide (NKp46D2-Ig; Example 3, FIG. 9A, 2 μg/well NKp46D2-Ig, 10 μg/well peptide): inhibited binding
Inhibition of rNKp46 binding across tumor cell lines (NKp46D2-Ig; HeLa, PC-3, HEK293T, 721.221, CHO-K1 and MIN-6 cells, FIG. 9C): evident for numerous tumor cell lines
Binding of LIR1-Ig in the presence of peptide (LIR1-Ig): not affected
Binding inhibition of LIR1-Ig (LIR1-Ig; [4]): did not induce significant binding inhibition
Binding inhibition of NKp44-Ig (NKp44-Ig; [4]): did not induce significant binding inhibition
NKp46-Ig binding to tumor cells in the presence of peptide (NKp46-Ig): inhibited
Binding inhibition of NKp30-Ig (NKp30-Ig): did not induce significant binding inhibition
Lysis of target 721.221 and CHO-K1 cells by NK cells ([2]; 721.221 and CHO-K1 target cells): inhibition of lysis
Lysis of target cells by NKp46-expressing NK cells ([2]; Example 1): inhibit lysis
Blocking effect of anti-NKp46 serum on lysis when the peptide was present ([2]; anti-NKp46 serum compared to control serum, FIG. 10B): no blocking effect was observed
Lysis of target cells in the presence of control serum ([2]; compared to control peptide, 15:1 E:T, FIG. 10B, p<0.01): inhibited lysis
Lysis of target HeLa cells by human primary NK cell line ([2]; compared to mock1, 4 hr, FIG. 10A, p<0.01): significantly suppressed
Percentage of CD107a+ NK cells (human primary NK cells): significantly reduced

SMFLL LKEGR SSHVQ RGYGK (SMFLLLKEGRSSHVQRGYGK) [SEQ ID NO: 7]
Direct binding to cells [1]: direct binding
Direct binding to cells ([1]; listed as 7): Yes (1)
Effect on NKp46D2L binding to cells (NKp46D2-Ig; [3]): enhancing NKp46D2-Ig binding
Effect on NKp46D2L binding to cells (NKp46D2-Ig; 2 μg/well NKp46D2-Ig, 10 μg/well peptide, listed as 7): Enhance (2)
Binding of LIR1-Ig in the presence of peptide (LIR1-Ig): not affected

TFYCR LDTAT SMFLL (TFYCRLDTATSMFLL) [SEQ ID NO: 55]
NKp46-Ig binding to tumor cells in the presence of peptide (NKp46-Ig): also inhibited

TFYCR LDTAT SMFLL LKEGR (TFYCRLDTATSMFLLLKEGR) [SEQ ID NO: 5]
Direct binding to cells [1]: No
Effect on NKp46D2L binding to cells (NKp46D2-Ig; [3]): inhibiting binding
Effect on NKp46D2L binding to cells (NKp46D2-Ig; 2 μg/well NKp46D2-Ig, 10 μg/well peptide, listed as 5): Suppress (2)
Binding of LIR1-Ig in the presence of peptide (LIR1-Ig): not affected
NKp46-Ig binding to tumor cells in the presence of peptide (NKp46-Ig): inhibited

TTAHR GTYRC FGSYN NHAWS (TTAHRGTYRCFGSYNNHAWS) [SEQ ID NO: 13]
Direct binding to cells [1]: direct binding
Direct binding to cells ([1]; listed as 13): Yes (2)
Effect on NKp46D2L binding to cells (NKp46D2-Ig; [3]): enhancing NKp46D2-Ig binding
Effect on NKp46D2L binding to cells (NKp46D2-Ig; 2 μg/well NKp46D2-Ig, 10 μg/well peptide, listed as 13): Enhance (1.5)
Binding of LIR1-Ig in the presence of peptide (LIR1-Ig): not affected

VCIRL VTSSK PRIMA WTSRF (VCIRLVTSSKPRTMAWTSRF) [SEQ ID NO: 33]
Effect on NKp44-Ig binding to tumor cells (NKp44-Ig): Enhance (1)

VTSSK PRTVA WTSRF TIWDD (VTSSKPRTVAWTSRFTIWDD) [SEQ ID NO: 34]
Direct binding to tumor cells (human cancer cells): No
Effect on NKp44-Ig binding to tumor cells (NKp44-Ig): inhibiting binding
Effect on NKp44-Ig binding to tumor cells (NKp44-Ig; listed as 34): Suppress (1.5)
